Literature values, collected in patent US20230312927A1, “POLY(SARCOSINE) POLYMER EXCIPIENTS” (CALUSA BIO, LLC, priority 2021, published 2023).

System: anti-drug antibodies (ADAs)
Settings: share of anti-drug antibodies that are neutralizing; van Schie et al. Ann. Rheum. Dis. 2015

Row | Substance | ADAs shown to be neutralizing [%]
1 | adalimumab [Humira] | 97
2 | infliximab [Remicade] | 90
